According to US6613536B1, “Synthetic peptides and pharmaceutical compositions comprising them for the treatment of systemic lupus erythematosus” (Yeda Research and Development Co. Ltd., priority 1995, dated 2003):

Columns and labels:
[1] = target: MHC class II products (H-2b) on splenic antigen-presenting cells of C3H.SW mice (mouse) (UniProt P14434); assay: flow cytometry, inhibition of binding of biotinylated peptide IIIa (competitor) to C3H.SW APC
[2] = target: MHC class II products (H-2b) on splenic antigen-presenting cells of C57BL/6 mice (mouse) (UniProt P14434); assay: flow cytometry, inhibition of binding of biotinylated peptide IIIa (competitor) to C57BL/6 APC
[3] = target: MHC class II products (H-2d) on splenic antigen-presenting cells of BALB/c mice (mouse) (UniProt P04228); assay: flow cytometry, inhibition of binding of biotinylated peptide IIIa (competitor) to BALB/c APC
[4] = target: MHC class II products (H-2d) on splenic antigen-presenting cells of BALB/c mice (mouse) (UniProt P04228); assay: flow cytometry, inhibition of binding of biotinylated peptide Ia (competitor) to BALB/c APC
[5] = target: MHC class II products (H-2b) on splenic antigen-presenting cells of C3H.SW mice (mouse) (UniProt P14434); assay: flow cytometry, inhibition of binding of biotinylated peptide Ia (competitor) to C3H.SW APC
[6] = target: MHC class II products (H-2b) on splenic antigen-presenting cells of C57BL/6 mice (mouse) (UniProt P14434); assay: flow cytometry, inhibition of binding of biotinylated peptide Ia (competitor) to C57BL/6 APC
[7] = target: MHC class II products (H-2s) on splenic antigen-presenting cells of SJL mice (mouse); assay: flow cytometry, inhibition of binding of biotinylated peptide IIIa (competitor) to SJL APC
[8] = target: MHC class II products (H-2s) on splenic antigen-presenting cells of SJL mice (mouse); assay: flow cytometry, inhibition of binding of biotinylated peptide Ia (competitor) to SJL APC
[9] = system: peripheral blood lymphocytes (PBL); assay: Proliferation of PBL from SLE patients and healthy controls; type: cell-based, human
Procedure: (§1) PBL from human SLE patients and of the appropriate control donors (2×10^5/well) were cultured in microtiter plates in enriched medium containing 10% pooled AB sera in the presence of the human or mouse monoclonal 16/6 Id antibody, in the presence of peptides of the invention or in the presence of phytohemagglutinin (PHA). The rate of proliferation was evaluated by the incorporation of ^3[H]-thymidine in the cell culture. Non-relevant peptides were used as specificity controls. Antigen and mitogen-stimulated cytokine production was quantitated in the supernatants of the above cultures using either the cytokine-dependent lines or the appropriate pairs of antibodies in ELISA assays. Inhibition of the proliferative responses was performed in vitro by adding increasing doses of the tested peptide analogs into the proliferative culture mixtures.
Peripheral blood lymphocytes (PBL) were isolated from the blood of SLE patients or healthy controls using ficol gradient. Thereafter, the PBL were incubated in the presence of different concentrations of the peptides Ia, IIa or IIIa, or the human 16/6 Id mAb for 24 hr, when a sample was taken for IL-2 measurement. The assay was continued for a total of 7 days, and ^3H-thymidine was added for the last 16 hr. Proliferation was detected by reading the amount of radioactivity incorporated into the DNA of the cells.

[10] = system: BALB/c and SJL mice; assay: Clinical manifestations of SLE in immunized mice (WBC, proteinuria, kidney analysis); type: in vivo, mouse
Procedure: The erythrocyte sedimentation rate was determined by diluting the heparinized blood in PBS at a ratio of 1:1. The diluted blood was then passed to a microsampling pipette and the sedimentation was measured 6 hours later. White blood cell counts were determined after the hemolysis of heparinized blood. Proteinuria was measured in a semi-quantitative manner, using a Combistix kit (Ames, Stoke Poges, Slough, U.K.). Immunohistology was performed by incubation of fixed frozen cryostat sections with FITC-labeled antibodies to mouse Ig. Staining was visualized via use of a fluorescent microscope.
BALBtc and SJL mice were immunized with mAb 5G12 or with peptides Ia and IIIa, and five months later were checked by two criteria for manifestation of SLE: white blood cell count (WBC) and proteinuria.
(i) White blood cell count (WBC): The mice were bled, their blood was diluted 1:10 with 1% (vol/vol) acetic acid in order to eliminate the red blood cells, and white blood cells were counted under a normal light microscope.
Proteinuria: The urine of the mice was tested using combisticks (Combistix Kit, Ames) for the presence of protein.

[11] = system: antibodies in sera of SLE patients and healthy controls; assay: Antibodies in human sera binding coated peptides or mAb 5G12 (ELISA); conditions: 32 SLE patients in comparison to healthy controls; plates coated 10 μg/ml
Procedure: Human SLE patients (32 patients) were bled and their sera were tested by ELISA for their ability to bind the peptides Ia, IIa and IIIa, a control peptide p195-212 (a myasthogenic peptide described in PCT publication No. WO 94/00148) or mAb 5G12.
Detection of the antibodies was conducted on plates that were coated with 10 μg/ml of peptides Ia, IIa, IIIa or p195-212 or mAb 5G12, in PBS for 2 hr, washed and blocked with 1% ovalbumin in PBS for an additional 2 hr. ELISA was continued as described after blockage in Example 2 above, using goat anti-human IgG polyclonal antibody conjugated to peroxidase.

[12] = system: peripheral blood lymphocytes (PBL); assay: IL-2 production by PBL of SLE patients and healthy controls; type: cell-based, human; conditions: sample at 24 hr
Procedure: as §1
PBL were isolated from blood of SLE patients or healthy controls using ficol gradient, and were incubated as in Example 13. A sample of 50 μl was removed 24 hr after the assay was started, and incubated in the presence of IL-2 sensitive cells (CTLD) for 24 hr, after which ^3H-thymidine was added for 16 hr, and the plates were harvested and counted on a beta counter.

| % inhibition [1] | % inhibition [2] | % inhibition [3] | % inhibition [4] | % inhibition [5] | % inhibition [6] | % inhibition [7] | % inhibition [8] | Substance | proliferation of PBL, actual number of responders ([9]; SLE patients) | proliferation of PBL, percentage of responders ([9]; SLE patients) | proliferation of PBL, actual number of responders ([9]; healthy controls) | proliferation of PBL, percentage of responders ([9]; healthy controls) | protein level in urine (in words) ([10]; BALB/c mice) | protein level in urine (in words) ([10]; SJL mice) | levels of serum antibodies that bind the coated peptide or mAb [11] | IL-2 production by PBL, actual number of responders ([12]; SLE patients) | IL-2 production by PBL, percentage of responders ([12]; SLE patients) | IL-2 production by PBL, actual number of responders ([12]; healthy controls) | IL-2 production by PBL, percentage of responders ([12]; healthy controls) |
| --- | --- | --- | --- | --- | --- | --- | --- | --- | --- | --- | --- | --- | --- | --- | --- | --- | --- | --- | --- |
| 84.4% | 59.3% | 0% | 0% | 60% | 82% | – | – | 34-5-3 (anti-I-A^b, Pharmingen) (antibody) | – | – | – | – | – | – | – | – | – | – | – |
| 25% | 0% | 100% | 76.7% | 0% | 0% | 0% | 0% | MKD6 (anti-I-A^d, Beckton-Dickinson) (antibody) | – | – | – | – | – | – | – | – | – | – | – |
| – | – | – | – | – | – | 92.8% | 100% | 10.3.6.2 (anti-I-A^s (Zamvil et al., 1988)) (antibody) | – | – | – | – | – | – | – | – | – | – | – |
| – | – | – | – | – | – | – | – | EINPSTGGTTYNQKFKAKAT (EINPSTGGTTYNQKFKAKAT) [peptide IIa, based on the CDR2 region of the VH chain of mAb 5G12] | 3/32 | 9% | 7/25 | 28% | smaller increase in protein level | High levels of protein | significantly higher levels of antibodies | 3/32 | 9% | 8/25 | 32% |
